# Source: US20250057968A1, “ANTI-DLL3 ANTIBODY AND PHARMACEUTICAL USE THEREOF, AND ANTIBODY-DRUG CONJUGATE CONTAINING ANTI-DLL3 ANTIBODY” (Jiangsu Hengrui Pharmaceuticals Co., Ltd., priority 2021, published 2025)
# T1: RatDLL3/CHO-s (Rattus norvegicus, UniProt O88671)
# T1 construct: Rat DLL3 full-length protein; expressed in transfected cells; host or cells: CHO-s (Invitrogen, R80007), lentiviral transduction
# T1 sequence (O88671 33-589): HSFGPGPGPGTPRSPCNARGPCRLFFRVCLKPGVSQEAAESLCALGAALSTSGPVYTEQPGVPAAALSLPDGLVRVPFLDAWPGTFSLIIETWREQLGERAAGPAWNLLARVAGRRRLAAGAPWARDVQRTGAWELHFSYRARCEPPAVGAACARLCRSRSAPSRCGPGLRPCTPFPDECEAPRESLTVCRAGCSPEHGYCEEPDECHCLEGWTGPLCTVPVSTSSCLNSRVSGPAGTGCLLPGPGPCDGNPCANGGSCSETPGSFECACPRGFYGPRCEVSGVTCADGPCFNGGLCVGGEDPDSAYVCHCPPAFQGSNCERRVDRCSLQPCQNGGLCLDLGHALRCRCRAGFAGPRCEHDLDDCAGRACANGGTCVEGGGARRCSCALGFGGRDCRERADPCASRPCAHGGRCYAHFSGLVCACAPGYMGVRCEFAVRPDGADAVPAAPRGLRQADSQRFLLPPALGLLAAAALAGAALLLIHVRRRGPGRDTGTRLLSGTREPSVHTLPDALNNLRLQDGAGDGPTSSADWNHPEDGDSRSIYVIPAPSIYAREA
# T2: Human DLL3 full-length protein on cells (human, UniProt Q9NYJ7 27-618)
# T2 sequence: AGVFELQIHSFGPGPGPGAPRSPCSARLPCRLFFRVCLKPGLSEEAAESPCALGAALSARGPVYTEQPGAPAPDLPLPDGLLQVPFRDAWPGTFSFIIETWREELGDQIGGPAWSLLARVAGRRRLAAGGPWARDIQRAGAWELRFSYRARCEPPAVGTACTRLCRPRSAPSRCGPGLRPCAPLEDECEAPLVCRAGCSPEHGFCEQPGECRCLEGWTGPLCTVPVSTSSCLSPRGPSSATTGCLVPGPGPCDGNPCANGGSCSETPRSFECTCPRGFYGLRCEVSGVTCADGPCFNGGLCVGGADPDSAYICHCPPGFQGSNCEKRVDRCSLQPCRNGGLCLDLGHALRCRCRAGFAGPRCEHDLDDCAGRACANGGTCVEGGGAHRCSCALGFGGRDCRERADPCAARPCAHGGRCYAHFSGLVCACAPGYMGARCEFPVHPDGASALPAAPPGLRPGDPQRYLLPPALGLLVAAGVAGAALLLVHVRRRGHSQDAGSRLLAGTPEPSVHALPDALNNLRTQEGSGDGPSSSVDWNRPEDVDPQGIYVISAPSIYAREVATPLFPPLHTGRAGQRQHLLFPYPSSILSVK
# T3: Rat DLL3 full-length protein on CHO-s cells (rat, UniProt O88671 33-589)
# T3 construct: also called RatDLL3/CHO-s; ratDLL3/CHO-s
# T3 sequence: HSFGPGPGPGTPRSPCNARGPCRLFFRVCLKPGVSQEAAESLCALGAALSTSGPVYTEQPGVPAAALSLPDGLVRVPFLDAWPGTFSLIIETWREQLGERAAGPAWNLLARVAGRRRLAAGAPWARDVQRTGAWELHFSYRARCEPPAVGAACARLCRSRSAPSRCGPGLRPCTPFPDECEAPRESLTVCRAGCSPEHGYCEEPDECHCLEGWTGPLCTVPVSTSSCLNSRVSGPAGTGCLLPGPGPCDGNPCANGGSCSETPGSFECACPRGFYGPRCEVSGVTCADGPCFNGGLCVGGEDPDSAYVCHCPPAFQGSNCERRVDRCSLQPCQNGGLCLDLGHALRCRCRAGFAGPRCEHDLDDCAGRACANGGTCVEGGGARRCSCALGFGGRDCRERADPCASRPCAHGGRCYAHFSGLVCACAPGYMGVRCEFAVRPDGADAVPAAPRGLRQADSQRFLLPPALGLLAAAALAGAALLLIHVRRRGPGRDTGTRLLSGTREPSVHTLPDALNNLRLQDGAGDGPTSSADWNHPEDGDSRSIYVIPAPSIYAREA
# T4: Cynomolgus monkey DLL3 full-length protein on CHO-s cells (cynomolgus monkey, UniProt Q9NYJ7 27-618 (human entry))
# T4 construct: also called cynoDLL3/CHO-s
# T4 chain: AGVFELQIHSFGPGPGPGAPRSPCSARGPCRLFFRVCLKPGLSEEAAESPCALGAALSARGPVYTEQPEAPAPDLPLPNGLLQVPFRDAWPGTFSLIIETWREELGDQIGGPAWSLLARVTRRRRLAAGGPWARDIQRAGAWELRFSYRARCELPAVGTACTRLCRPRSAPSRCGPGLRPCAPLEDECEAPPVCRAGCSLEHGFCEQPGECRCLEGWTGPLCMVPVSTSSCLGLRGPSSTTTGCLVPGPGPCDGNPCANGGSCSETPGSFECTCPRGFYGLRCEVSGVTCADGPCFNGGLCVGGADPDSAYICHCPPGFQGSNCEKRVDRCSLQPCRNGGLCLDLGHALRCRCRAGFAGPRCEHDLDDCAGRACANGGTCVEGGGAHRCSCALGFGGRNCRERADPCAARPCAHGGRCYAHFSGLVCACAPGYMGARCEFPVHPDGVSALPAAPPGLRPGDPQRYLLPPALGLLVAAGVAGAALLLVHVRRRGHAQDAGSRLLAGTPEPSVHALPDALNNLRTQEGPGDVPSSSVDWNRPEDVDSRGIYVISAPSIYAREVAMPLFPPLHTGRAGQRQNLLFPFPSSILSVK
# B1: BI-764532 (antibody, human IgG1, kappa, V domains shown)
# VH: QVQLVQSGAEVKKPGASVKVSCKASGYTFTSYYVHWVRQAPGQGLEWMVIINPGGGTTSYAQKFLGRVTMTRDTSTNTVYMELKSLRSEDTAVYYCARGEAVTGNYFYYGMDVWGQGTTVTVSS
# VL: DIQMTQSPSAMSASVGDRVTITCRASQGISNYLVWFQQKPGKAPKRLIYAVSSLYSGVPSRFSGSGSGTEFTLTISSLQPEDFATYYCLQHDSYPYTFGQGTKLEIKR
# notes: also called positive control molecule
# Key:
# RatDLL3/CHO-s = biological target: T1, RatDLL3/CHO-s; assay: Cell-level FACS binding assay, RatDLL3/CHO-s cells
# Experimental: (§1) Cells of the DLL3-expressing small cell lung cancer cell lines H1184 (ATCC, Cat. No. CRL-5858), DLL3/H82, cynoDLL3/CHO-s, and RatDLL3/CHO-s were suspended at 1×10^6/mL in FACS buffer (1% BSA+pH 7.4 PBS), and the cell suspensions were added to a 96-well round-bottom plate (Corning, 3795) at 100 μL/well. The plate was centrifuged at 300 g for 5 min, and the supernatant was removed. Different concentrations of test antibodies were added at 100 μL/well. The plate was incubated in the dark in a refrigerator at 4° C. for 1 h. After 3 washes by centrifugation at 300 g, working concentrations of APC anti-human IgG Fc (BioLegend, 410712) or PE F(ab′)2-goat anti-human IgG (invitrogen, H10104) were added. The plate was incubated in the dark in a refrigerator at 4° C. for 40 min. After 3 washes by centrifugation at 300 g, the geometric mean fluorescence intensity was measured on an Invitrogen flow cytometer, and the EC50 values of the antibodies in binding to DLL3-expressing cells were calculated. The results are shown in Table 11-1, Table 11-2, Table 11-3, and FIG. 1A to FIG. 1C.
# [1] = biological target: T5, hDLL3(ECD)-strep twin, biotinylated (human, UniProt Q9NYJ7 27-492, biotinylated (site not stated)); assay: competition ELISA: BI-764532 coated on the plate (1 µg/mL), biotinylated DLL3-Strep (0.1 µg/mL) with soluble BI-764532 as competitor, streptavidin-peroxidase detection, OD450
# T5 construct: also called Biotinylated DLL3 antigen; Biotinylated DLL3-Strep
# Experimental: The plate was washed 3 times with 250 μL of PBST solution per well. The plate was blocked with 250 μL of 5% milk per well at 37° C. for 2 h. The plate was washed 3 times with 250 μL of PBST solution per well. […] The plate was washed 6 times with 250 μL of PBST solution per well. […] The plate was washed 6 times with 250 μL of PBST solution per well. TMB (KPL, 5120-0077) substrate solution was added at 100 μL/well, and color development was allowed at room temperature for 5-10 min.
# [2] = biological target: T2, Human DLL3 full-length protein on cells; assay: cell-based or functional assay
# [3] = biological target: T2, Human DLL3 full-length protein on cells; assay: FACS on H1184 cells
# Experimental: as §1, with “calculated.” for “calculated. The results are shown in Table 11-1, Table 11-2, Table 11-3, and FIG. 1A to FIG. 1C.”
# [4] = biological target: T3, Rat DLL3 full-length protein on CHO-s …; assay: FACS on RatDLL3/CHO-s cells
# Experimental: as §1, with “calculated.” for “calculated. The results are shown in Table 11-1, Table 11-2, Table 11-3, and FIG. 1A to FIG. 1C.”
# [5] = biological target: T4, Cynomolgus monkey DLL3 full-length …; assay: FACS on cynoDLL3/CHO-s cells
# Experimental: as §1, with “calculated.” for “calculated. The results are shown in Table 11-1, Table 11-2, Table 11-3, and FIG. 1A to FIG. 1C.”
Molecule,binding to cells expressing rat DLL3 (in words) (RatDLL3/CHO-s),IC50 (read off the curve) [1] [µg/mL],"IC50 (nM), cell killing caused by endocytosis of antibodies (DT3C, DMS53/DLL3 cells) [2] [nM]","Imax, cell killing caused by endocytosis of antibodies (DT3C, DMS53/DLL3 cells) [2]",EC50 [3] [nM],Emax [3],binding result [4],EC50 [5] [nM],Emax [5]
"BI-764532: positive control molecule, constructed by reference to WO2019234220A1; heavy chain SEQ ID NO: 62, light chain SEQ ID NO: 63 [reference compound]",No binding,–,–,–,–,–,–,–,–
B1,–,~0.06,3.27,86.5,3.94,1620,no binding,3.42,963
